No end group written: not given here. *: point of attachment. Biotin = O=C1N[C@H]2[C@H](CS[C@H]2CCCCC(=O)*)N1
Target: Recombinant human His6-tagged Hsp70 (human), P0DMV8
Test: ELISA with streptavidin-peroxidase after gel filtration of Hsp70 loaded with biotinylated peptide C (ADP)

Recombinant human His6-tagged Hsp70 (human), P0DMV8, sequence (P0DMV8 2-641): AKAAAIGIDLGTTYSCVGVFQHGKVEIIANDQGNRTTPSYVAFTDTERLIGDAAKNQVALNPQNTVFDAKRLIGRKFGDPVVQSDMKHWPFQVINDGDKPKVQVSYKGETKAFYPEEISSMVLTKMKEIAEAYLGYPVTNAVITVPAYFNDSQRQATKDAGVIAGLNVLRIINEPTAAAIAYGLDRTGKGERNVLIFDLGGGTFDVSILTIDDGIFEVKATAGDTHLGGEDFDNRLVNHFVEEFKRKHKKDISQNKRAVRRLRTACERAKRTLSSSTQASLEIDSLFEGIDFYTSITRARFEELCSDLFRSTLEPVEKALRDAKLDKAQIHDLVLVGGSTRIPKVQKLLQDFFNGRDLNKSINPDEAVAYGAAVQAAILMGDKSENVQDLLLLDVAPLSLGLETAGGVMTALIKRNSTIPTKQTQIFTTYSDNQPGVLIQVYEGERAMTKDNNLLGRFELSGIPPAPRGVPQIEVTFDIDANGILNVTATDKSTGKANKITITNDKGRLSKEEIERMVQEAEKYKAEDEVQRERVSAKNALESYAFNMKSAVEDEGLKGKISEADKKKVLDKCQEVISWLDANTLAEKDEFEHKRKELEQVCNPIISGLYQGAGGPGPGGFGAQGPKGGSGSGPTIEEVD

B1: Biotinylated peptide C (biotin-…) (peptide)
peptide: Biotin-GCEVFGLGWRSYKH
yield of Hsp70 complex formation: 20 to 30%

— US20040071656A1, “Modulation of heat-shock-protein-based immunotherapies” (priority 2001, published 2004)
